# Results reported in US20140322218A1 (Amgen, published 2014).
# Where a chain is given by its changes, count along the chain named. Names may count otherwise.
# T1: (1-43)::FLAG::ckCDH19(44-468)::huCDH19(464-772), on 293T cells (human/chicken chimera)
# T1 construct: Entry holds leader (1-43), Flag tag and CDH19 part; leader left out; also called Hu EC5 (chicken backbone)
# T1 chain: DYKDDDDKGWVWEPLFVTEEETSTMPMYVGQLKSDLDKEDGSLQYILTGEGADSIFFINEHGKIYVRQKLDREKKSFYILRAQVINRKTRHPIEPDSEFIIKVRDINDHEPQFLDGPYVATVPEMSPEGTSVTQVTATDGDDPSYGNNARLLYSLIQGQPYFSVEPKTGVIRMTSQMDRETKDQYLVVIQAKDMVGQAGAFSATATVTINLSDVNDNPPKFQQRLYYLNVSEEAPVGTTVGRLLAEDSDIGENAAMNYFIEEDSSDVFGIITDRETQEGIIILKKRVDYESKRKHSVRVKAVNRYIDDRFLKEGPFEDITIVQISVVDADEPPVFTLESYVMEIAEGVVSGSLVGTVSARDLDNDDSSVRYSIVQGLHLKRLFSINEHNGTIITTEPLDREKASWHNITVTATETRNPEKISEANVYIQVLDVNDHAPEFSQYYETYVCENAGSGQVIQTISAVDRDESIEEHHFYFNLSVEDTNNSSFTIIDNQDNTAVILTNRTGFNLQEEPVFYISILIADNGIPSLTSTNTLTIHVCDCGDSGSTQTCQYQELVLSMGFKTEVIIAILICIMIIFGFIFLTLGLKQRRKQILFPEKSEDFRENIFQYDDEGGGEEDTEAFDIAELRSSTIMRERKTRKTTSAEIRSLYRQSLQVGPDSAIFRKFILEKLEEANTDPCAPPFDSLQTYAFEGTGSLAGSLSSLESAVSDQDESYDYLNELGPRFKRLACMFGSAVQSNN
# T2: ckCDH19(1-43)::FLAG::ckCDH19(44-776), on 293T cells (chicken)
# T2 construct: Entry holds leader (1-43), Flag tag and CDH19 part; leader left out; also called Ck EC1-5
# T2 chain: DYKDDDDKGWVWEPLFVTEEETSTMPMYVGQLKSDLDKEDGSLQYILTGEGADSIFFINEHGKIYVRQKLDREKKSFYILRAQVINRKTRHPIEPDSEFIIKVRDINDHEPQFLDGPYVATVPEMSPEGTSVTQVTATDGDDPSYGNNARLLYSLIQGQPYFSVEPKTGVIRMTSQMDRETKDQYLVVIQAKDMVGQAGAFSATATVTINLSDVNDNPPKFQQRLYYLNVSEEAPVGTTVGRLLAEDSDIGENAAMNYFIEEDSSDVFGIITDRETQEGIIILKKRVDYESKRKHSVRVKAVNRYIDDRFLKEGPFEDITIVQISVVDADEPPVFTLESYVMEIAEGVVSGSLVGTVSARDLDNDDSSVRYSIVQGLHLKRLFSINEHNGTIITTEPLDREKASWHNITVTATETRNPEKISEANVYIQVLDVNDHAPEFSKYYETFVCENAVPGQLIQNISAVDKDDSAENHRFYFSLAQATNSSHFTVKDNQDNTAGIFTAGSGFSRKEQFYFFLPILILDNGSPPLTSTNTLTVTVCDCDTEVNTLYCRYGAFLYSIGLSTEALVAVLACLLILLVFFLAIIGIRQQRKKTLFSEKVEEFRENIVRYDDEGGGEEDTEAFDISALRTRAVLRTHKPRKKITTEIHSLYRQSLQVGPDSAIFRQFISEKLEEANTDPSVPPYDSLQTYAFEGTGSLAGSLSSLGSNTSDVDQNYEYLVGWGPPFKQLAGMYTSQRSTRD
# T3: muCDH19(44-770), Flag-tagged, on 293T cells (mouse)
# T3 construct: also called Mu EC1-5
# T3 chain: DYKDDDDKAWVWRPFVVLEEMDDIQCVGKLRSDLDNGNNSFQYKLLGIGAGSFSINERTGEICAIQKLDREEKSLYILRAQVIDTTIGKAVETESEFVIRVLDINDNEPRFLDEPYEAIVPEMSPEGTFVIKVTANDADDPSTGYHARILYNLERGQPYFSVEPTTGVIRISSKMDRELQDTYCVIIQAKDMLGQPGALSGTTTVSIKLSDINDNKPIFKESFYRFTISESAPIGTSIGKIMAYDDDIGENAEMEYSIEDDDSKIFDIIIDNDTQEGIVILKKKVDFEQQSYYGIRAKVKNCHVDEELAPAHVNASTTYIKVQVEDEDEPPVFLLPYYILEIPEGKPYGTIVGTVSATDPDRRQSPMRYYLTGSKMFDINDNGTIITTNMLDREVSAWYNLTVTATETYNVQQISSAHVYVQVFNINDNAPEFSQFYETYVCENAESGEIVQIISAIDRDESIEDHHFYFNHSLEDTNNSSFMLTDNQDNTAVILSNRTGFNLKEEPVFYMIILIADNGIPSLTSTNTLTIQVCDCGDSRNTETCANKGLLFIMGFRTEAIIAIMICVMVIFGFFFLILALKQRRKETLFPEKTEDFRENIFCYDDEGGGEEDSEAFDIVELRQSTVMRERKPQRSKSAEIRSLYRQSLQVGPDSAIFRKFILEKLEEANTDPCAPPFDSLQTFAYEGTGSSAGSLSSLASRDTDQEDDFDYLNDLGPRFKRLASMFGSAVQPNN
# B1: anti-CDH19 antibody 2G6 (Ab ID 13588) (antibody, human IgG1, lambda, V domains shown)
# VH: QVQLVESGGGVVQPGRSLRLSCAASGFTFSSYGMHWVRQAPGKGLEWVAFIWYDGSNKYYADSVKDRFTISRDNSKNTLYLQMKSLRAEDTAVYYCARRAGIIGTIGYYYGMDVWGQGTTVTVSS
# VL: SYELTQPPSVSVSPGQTASITCSGDRLGEKYTCWYQQRPGQSPLLVIYQDTKRPSGIPERFSGSNSGNTATLTISGTQAMDEADYYCQAWDSSTVVFGGGTKLTVLG
# B2: hu anti-<huCDH19> 23A10.3 (1-474)(L92Q) VH::huIgG1z / 23A10.3 (1-231)(C42S) VL::huLLC-C2 (Ab ID 14077) (antibody, V domains shown)
# VH: B1 VH with S31R, M34I, F50V, D66G, K84N, T91S, I103P, I106T
# VL: B1 VL with T32V, C33S, R38K, L44I, T51N, R53W
# notes: Engineered variant of 23A10
# B3: anti-CDH19 antibody 4A2 (Ab ID 13592) (antibody, human IgG1, kappa, V domains shown)
# VH: QVQLQESGPGLVKPSQTLSLTCTVSGGSISSSGYYWSWIRQHPGKGLEWIGYIYYTGSAYYNPSLKSRVTISVDTSKNQFSLKLSSVTAADTAVYYCARDGSSGWYFQYWGQGTLVTVSS
# VL: EIVLTQSPGTLSLSPGERATLSCRASRNISSSYLAWYQQKPGQAPRLLIYGPSSRATGIPDRFSGSGSGTDFTLTISRLEPEDFTVYYCQQYGSSFTFGPGTKVDIKR
# B4: hu anti-<huCDH19> 4B10 VH::huIgG1z / 4B10 VL::huKLC (Ab ID 13590) (antibody, V domains shown)
# VH: QVQLVESGGGVVQPGRSLRLSCAASGFTFSSYDMHWVRQAPGKGLEWVAVISYDGTNEYYADSVKGRFTISRDTSKNTLYLQMNSLRAEDTAVYYCARERYFDWSFDYWGQGTLVSVSS
# VL: EIVLTQSPGTLSLSPGERATLSCRASQSVSNTYLAWYHQRPGQAPRLLIYGASSRATGIPDRFSGSGSGTDFALTISSLEPEDFAVYYCQQYSNSWTFGQGTKVEIKR
# B5: hu anti-<huCDH19> 25F8.1 (1-469)(F90Y) VH::huIgG1z / 25F8.1 (1-235)(K45Q,S102A,D111E) VL::huLLC-C2 (Ab ID 14096) (antibody, V domains shown)
# VH: QVQLVQSGAEVKKPGASVKVSCKASGYTFTSYYIHWVRQAPGQGLEWMGIINPSGGSTRYAQKFQGRVTMTRDTSTSTVYMELSSLRSEDTAVYYCARGGIQLWLHFDYWGQGTLVTVSS
# VL: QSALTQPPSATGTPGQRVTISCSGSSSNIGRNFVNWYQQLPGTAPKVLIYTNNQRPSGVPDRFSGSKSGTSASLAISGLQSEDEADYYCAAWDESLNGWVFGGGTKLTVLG
# notes: Engineered variant of 25F8
# B6: hu anti-<huCDH19> 26D1.1 VH::huIgG1z / 26D1.1 VL::huLLC-C2 (Ab ID 13882) (antibody, V domains shown)
# VH: B5 VH with G26R, I34M, H35S, N52H, S57D, R59T, R72G, Q102K
# VL: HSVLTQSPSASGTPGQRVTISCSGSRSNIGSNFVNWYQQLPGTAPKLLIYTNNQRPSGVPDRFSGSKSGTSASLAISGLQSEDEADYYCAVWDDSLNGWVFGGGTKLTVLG
# B7: hu anti-<huCDH19> 4A9 VH::huIgG1z / 4A9 VL::huLLC-C1 (Ab ID 13589) (antibody, V domains shown)
# VH: QVQLQESGPGLVKPSETLSLTCTVSGGSISGYYWSWIRQPPGKGLEWFAYFSYSGSTNYNPSLKSRVTLSVDTSKNQFSLKLSSVTAADTAVYYCARNWAFHFDFWGQGTLVTVSS
# VL: QSVLTQPPSVSGAPGQRVTISCTGSSSNIGTGYAVHWYQQFPGTAPKLLIYGNNNRPSGVPDRFSGSKSGTSASLAITGLQAEDEADYYCQSYDSRLSGWVFGGGTKLTVLG
# notes: Recombinant fully human IgG1
# Biological target: T1, (1-43)::FLAG::ckCDH19(44-468)::huCDH19(4 …)
# Test: FACS, transfected 293T
# Experimental: (§1) The following binding assay was completed in presence of 2 mM CaCl2. […] Cells were then washed one time and the amount of cell associated Alexa647-labelled Ab was quantitated by flow cytometry. The experiments included mock transfected controls.
row,binding result,Binder
1,no binding (tested: 5 ug/ml),B1
2,no binding (tested: 5 ug/ml),B2
3,no binding (tested: 5 ug/ml),B3
4,no binding (tested: 5 ug/ml),B4
5,no binding (tested: 5 ug/ml),B5
6,no binding (tested: 5 ug/ml),B6
7,no binding (tested: 5 ug/ml),B7

# Biological target: T4, ckCDH19(1-43)::FLAG::ckCDH19(44-249)::huCDH19(250-364)::ckCDH19(365-776), on 293T cells (human/chicken chimera)
# T4 construct: Entry holds leader (1-43), Flag tag and CDH19 part; leader left out; also called Hu EC3 (chicken backbone)
# Test: FACS, transfected 293T
# Experimental: as §1
row,binding result,Binder
1,binds,B1
2,binds,B2
3,binds,B4
4,no binding (tested: 5 ug/ml),B5
5,no binding (tested: 5 ug/ml),B6
6,no binding (tested: 5 ug/ml),B7

# Biological target: T5, huCDH19(1-43)::FLAG::hu(44-141)::ckCDH19(142-776), on 293T cells (human/chicken chimera)
# T5 construct: Entry holds leader (1-43), Flag tag and CDH19 part; leader left out; also called Hu EC1 (chicken backbone)
# Test: FACS, transfected 293T
# Experimental: as §1
row,binding result,Binder
1,no binding (tested: 5 ug/ml),B1
2,no binding (tested: 5 ug/ml),B2
3,no binding (tested: 5 ug/ml),B3
4,no binding (tested: 5 ug/ml),B4
5,binds,B5
6,binds,B6
7,binds,B7

# Biological target: T2, ckCDH19(1-43)::FLAG::ckCDH19(44-776), …
# Test: FACS, transfected 293T
# Experimental: as §1
row,binding result,Binder
1,no binding (tested: 5 ug/ml),B1
2,no binding (tested: 5 ug/ml),B2
3,no binding (tested: 5 ug/ml),B3
4,no binding (tested: 5 ug/ml),B4
5,no binding (tested: 5 ug/ml),B5
6,no binding (tested: 5 ug/ml),B6
7,no binding (tested: 5 ug/ml),B7

# Biological target: T3, muCDH19(44-770), Flag-tagged, on 293T …
# Test: FACS, transfected 293T
row,binding result,Binder
1,binds,B1
2,binds,B2
3,no binding (tested: 5 ug/ml),B4
4,no binding (tested: 5 ug/ml),B6
5,no binding (tested: 5 ug/ml),B7

# Biological target: T6, huCDH19(44-141)::muCDH19(140-770), Flag-tagged, on 293T cells (human/mouse chimera)
# T6 construct: also called Hu EC1
# Test: FACS, transfected 293T
# Text: (§2) The experiment included assaying the anti-CDH19 antibodies against mouse Cadherin19 to determine suitability for binning on these human/mouse chimeras.
row,binding result,Binder
1,binds,B1
2,binds,B6
3,binds,B7

# Biological target: T7, huCDH19(44-249)::muCDH19(248-770), Flag-tagged, on 293T cells (human/mouse chimera)
# T7 construct: also called Hu EC1-2; C137896
# Test: FACS, transfected 293T
# Text: as §2
row,binding result,Binder
1,binds,B1
2,binds,B6
3,binds,B7
